This note sets out measurements from US20100183617A1 (UNIVERSITY OF VIRGINIA PATENT FOUNDATION, published 2010).

To fix the notation:
B2: in vitro translated 35S-methionine labeled mature mouse SLLP1 (128 residues) with N-terminal HA tag (ligand, not shown: small tags and cut ends)
chain: KVFSRCELAKEMHDFGLDGYRGYNLADWVCLAYYTSGFNTNAVDHEADGSTNNGIFQISSRRWCRTLASNGPNLCRIYCTDLLNNDLKDSIVCAMKIVQEPLGLGYWEAWRHHCQGRDLSDWVDGCDF
modifications: 35S-methionine labeled
notes: ˜16 kD; also called SLLP1 (S); S-SLLP1

The target of experiment [1] is T1, purified recombinant mouse SAS1R (mature, 414 residues), His-tagged, expressed in E. coli (mouse, UniProt Q6HA09 24-435).
T1 construct: Purified from the insoluble fraction in 8 M urea on a Ni column; The preparation also holds a ˜25 kD C-terminal fragment; ZEP is the earlier name of SAS1R; also called rSAS1R; rec SAS1R; not shown: twenty vector-encoded (pET-28b(+)) amino acids including a six histidine tag at the N-terminus; ten vector-encoded amino acids including a six histidine tag at the C-terminus
T1 sequence: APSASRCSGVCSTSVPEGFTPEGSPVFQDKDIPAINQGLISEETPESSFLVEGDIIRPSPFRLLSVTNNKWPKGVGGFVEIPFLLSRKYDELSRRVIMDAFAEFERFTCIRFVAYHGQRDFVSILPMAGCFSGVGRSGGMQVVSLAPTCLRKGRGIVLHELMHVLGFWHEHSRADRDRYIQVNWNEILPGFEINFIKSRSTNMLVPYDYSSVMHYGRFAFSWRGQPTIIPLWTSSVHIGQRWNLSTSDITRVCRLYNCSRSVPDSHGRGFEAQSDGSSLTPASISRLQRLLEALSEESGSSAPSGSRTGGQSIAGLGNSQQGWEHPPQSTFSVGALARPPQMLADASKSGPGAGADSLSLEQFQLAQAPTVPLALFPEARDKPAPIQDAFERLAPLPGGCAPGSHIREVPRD
Kind of experiment: co-localization by immunofluorescence, capacitated sperm incubated with rSAS1R.

The target of experiment [2] is T2, in vitro translated 35S-methionine labeled full length SAS1R with N-terminal c-Myc tag (mouse, UniProt Q6HA09 24-435, 35S-methionine labeled).
T2 construct: ˜50 kD; also called SAS1R full length (F); F-SAS1R full length
T2 sequence: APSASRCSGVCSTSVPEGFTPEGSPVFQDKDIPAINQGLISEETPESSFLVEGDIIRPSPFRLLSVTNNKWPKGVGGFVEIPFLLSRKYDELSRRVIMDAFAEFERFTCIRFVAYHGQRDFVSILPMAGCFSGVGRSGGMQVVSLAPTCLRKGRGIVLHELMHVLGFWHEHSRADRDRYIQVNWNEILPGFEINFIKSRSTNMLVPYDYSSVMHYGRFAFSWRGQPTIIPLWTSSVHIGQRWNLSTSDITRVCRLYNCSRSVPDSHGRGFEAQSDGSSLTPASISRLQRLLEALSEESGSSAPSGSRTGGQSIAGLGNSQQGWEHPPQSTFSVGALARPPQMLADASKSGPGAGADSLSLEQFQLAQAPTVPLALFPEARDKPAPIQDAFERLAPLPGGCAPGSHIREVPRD
Kind of experiment: co-IP of in vitro translated 35S-labeled proteins, anti-Myc beads.
Protocol: (§1) High affinity anti-c-Myc and anti-HA monoclonal antibodies coupled to agarose beads were employed to immunoprecipitate proteins (IP) and their radiolabeled putative interacting partners (Co-IP) using the Profound c-Myc/HA Tag IP/Co-IP system (Pierce, Ill.). For Co-IP reactions, the specific TNT products, ranging from 7-23 μl were gently mixed and kept at 4° C. for 1 h. Simultaneously the anti-c-Myc and anti-HA antibody beads were incubated with 5% milk in PBST (phosphate buffer saline with 0.05% Tween 20) for 1 h at 4° C. in Handy spin columns (Pierce, Ill.) with gentle end-over-end mixing to prevent loss of beads during the subsequent steps. Following blocking, the antibody beads were incubated with IP or Co-IP samples overnight at 4° C. in Handee spin columns with gentle end-over-end mixing. The beads were then precipitated and washed 3 times in 500 μl of PBST at 4000×g for 10 sec with 3 gentle mixes during each wash. The IP and co-IP products were then recovered from the beads in 23 μl of 2× non-reducing sample buffer, heated at 99° C. for 5 min, centrifuged, and mixed with 2 μl of β-mercaptoethanol, and 20 μl of this mixture was loaded per lane for SDS-PAGE analysis using Criterion gels (Bio-Rad, CA). After electrophoresis, the gels were fixed, air dried, exposed to phosphor screens, and imaged as described above for analysis of TNT products. […]

Experiment [3] concerns the target T1, purified recombinant mouse SAS1R …. Kind of experiment: far-western overlay.
Protocol: Before protein overlay, the strips were incubated with blocking buffer for 1 h. […] After washing in PBST (×4), the strips were probed with goat anti-mouse HRP secondary antibody in blocking buffer for 1 h, washed in PBST (×4) followed by PBS (×1), and developed with TMB.
Experiment [4] has as its target T3, SV40 large T-antigen (control construct of the two-hybrid system; HA-tagged when translated in vitro) (SV40, UniProt P03070 86-708).
T3 construct: Control used both in the Y2H assay and in the co-IP (HA tag); also called T-antigen (T)
Kind of experiment: yeast two-hybrid, high stringency plate.

Experiment [5] concerns the target B2. Kind of experiment: co-IP of in vitro translated 35S-labeled proteins, anti-Myc beads.
Protocol: as §1

T3 sequence (P03070 86-708 limits assumed): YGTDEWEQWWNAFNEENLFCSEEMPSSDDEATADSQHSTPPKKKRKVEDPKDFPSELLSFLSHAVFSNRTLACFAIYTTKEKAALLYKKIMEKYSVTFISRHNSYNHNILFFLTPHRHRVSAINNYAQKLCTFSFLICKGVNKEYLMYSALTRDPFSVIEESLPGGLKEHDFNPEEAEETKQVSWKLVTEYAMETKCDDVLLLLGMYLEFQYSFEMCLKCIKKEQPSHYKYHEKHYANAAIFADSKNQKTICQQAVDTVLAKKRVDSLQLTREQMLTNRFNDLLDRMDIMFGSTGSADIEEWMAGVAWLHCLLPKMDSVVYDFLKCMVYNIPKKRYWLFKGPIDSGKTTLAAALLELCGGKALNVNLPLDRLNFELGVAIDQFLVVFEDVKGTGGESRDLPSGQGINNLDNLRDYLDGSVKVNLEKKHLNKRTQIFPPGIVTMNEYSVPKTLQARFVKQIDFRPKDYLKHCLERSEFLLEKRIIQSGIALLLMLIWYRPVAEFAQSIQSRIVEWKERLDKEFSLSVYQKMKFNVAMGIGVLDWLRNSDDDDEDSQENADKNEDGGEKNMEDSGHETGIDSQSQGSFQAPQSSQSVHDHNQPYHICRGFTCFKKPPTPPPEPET

B1: native mouse SLLP1 of sperm (acrosomal, ˜15 kDa form) (ligand)
chain: KVFSRCELAKEMHDFGLDGYRGYNLADWVCLAYYTSGFNTNAVDHEADGSTNNGIFQISSRRWCRTLASNGPNLCRIYCTDLLNNDLKDSIVCAMKIVQEPLGLGYWEAWRHHCQGRDLSDWVDGCDF
notes: Only a ˜15 kDa form is found in sperm extracts; The predicted processed form is residues 94-221 (cleavage between A93 and K94 is only predicted); On sperm or in sperm extracts; also called native SLLP1; native mSLLP1
With B1, in experiment [1], the binding result was “binds”.

B2: in experiment [2], the binding result was “binds”.

B3: purified soluble recombinant mouse SLLP1 (mature form, residues 94-221), His-tagged, expressed in E. coli (ligand)
chain: KVFSRCELAKEMHDFGLDGYRGYNLADWVCLAYYTSGFNTNAVDHEADGSTNNGIFQISSRRWCRTLASNGPNLCRIYCTDLLNNDLKDSIVCAMKIVQEPLGLGYWEAWRHHCQGRDLSDWVDGCDF
notes: also called rSLLP1; rec SLLP1; not shown: two vector-encoded residues at the N-terminus and eight at the C-terminus including the six-histidine tag (pET28b+)
In the case of B3, the binding result in experiment [3] is recorded as “binds”.

B4: human Lamin C (negative control construct of the two-hybrid system) (other)
chain: SEEVVSREVSGIKAAYEAELGDARKTLDSVAKERARLQLELSKVREEFKELKARNTKKEGDLIAAQARLKDLEALLNSKEAALSTALSEKRTLEGELHDLRGQVAKLEAALGEAKKQLQDEMLRRVDAENRLQTMKEELDFQKNIYSEELRETKRRHETRLVEID
With B4, the binding result in experiment [4] is listed as “no binding”.

B5: in vitro translated 35S-methionine labeled SAS1R N-terminus (121 residues) with N-terminal c-Myc tag (receptor, not shown: small tags and cut ends)
chain: MGAPSASRCSGVCSTSVPEGFTPEGSPVFQDKDIPAINQGLISEETPESSFLVEGDIIRPSPFRLLSVTNNKWPKGVGGFVEIPFLLSRKYDELSRRVIMDAFAEFERFTCIRFVAYHGQR
modifications: 35S-methionine labeled
notes: ˜21 kD; also called N-terminus (N); N-SAS1R N-terminus
As to B5, the binding result in experiment [5] is on record as “binds”.
